Measured values reported in paper PMC8928829 (mAbs, 2022).

B1: NIH-CoVnb-112 (VHH)
VHH: DVQLQESGGGLVQPGGSLRLSCAASGLTLDYYAIGWFRQAPGKEREGVSCISSSDGSTYYADSVKGRFTTSRDNAKNTVYLQMNSLKPEDTAVYYCAAVPSTYYSGTYYYTCHPGGMDYWGKGTQVTVSS
B2: NIH-CoVnb-112 (VHH)
VHH: DVQLQESGGGLVQPGGSLRLSCAASGLTLDYYAIGWFRQAPGKEREGVSCISSSDGSTYYADSVKGRFTTSRDNAKNTVYLQMNSLKPEDTAVYYCAAVPSTYYSGTYYYTCHPGGMDYWGKGTQVTVSS

Assays:
Conditions in all cases: both partners purified
[1] = target: T1, SARS-CoV-2 RBD (prototype), construct made for crystallography (SARS-CoV-2, prototype (Wuhan-Hu-1)); assay: crystal structure
T1 construct: also called prototype SARS-CoV-2 RBD; SARS-CoV-2 RBD (319-537)

[2] = target: recombinant SARS-CoV-2 RBD, prototype (BLI) (SARS-CoV-2, prototype (Wuhan-Hu-1), UniProt P0DTC2); assay: BLI
[3] = target: SARS-CoV-2 RBD, prototype (SARS-CoV-2, prototype (Wuhan-Hu-1), UniProt P0DTC2); assay: BLI

Binder | binding result [1] | Kd [2] [nM] | koff [2] [s⁻¹] | kon [3] [M⁻¹ s⁻¹]
B1 | binds | 1.59 | 0.000236 | –
B2 | – | – | – | 223000
